Laboratory results from PMC9352680, “A comprehensive thermodynamic model for RNA binding by the Saccharomyces cerevisiae Pumilio protein PUF4”.

target: T1, PUF4 RNA-binding domain (Saccharomyces cerevisiae, UniProt P25339 537-888); assay: Mg; RNA-MaP; 20 mM Na-HEPES pH 7.4, 30 mM KOAc, 0.75 mM MgCl2, 0.1% Tween-20, 5% glycerol, 0.1 mg/mL BSA, 2 mM DTT; 25 C; 0.0125-409.6 nM protein; settings: tags: N-His6-TEV cleaved; C-SNAP kept, Cy3B-labelled; label: tethered on chip by stalled RNA polymerase
T1 sequence: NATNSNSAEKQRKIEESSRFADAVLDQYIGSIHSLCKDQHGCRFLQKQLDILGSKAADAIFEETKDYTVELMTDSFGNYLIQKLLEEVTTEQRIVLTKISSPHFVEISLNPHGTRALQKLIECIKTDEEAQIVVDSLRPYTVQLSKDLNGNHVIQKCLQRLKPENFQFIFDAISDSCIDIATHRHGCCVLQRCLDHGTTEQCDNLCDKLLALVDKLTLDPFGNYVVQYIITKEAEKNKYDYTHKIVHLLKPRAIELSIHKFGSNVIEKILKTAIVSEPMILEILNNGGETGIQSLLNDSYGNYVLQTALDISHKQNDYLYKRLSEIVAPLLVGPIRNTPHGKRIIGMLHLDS

Row | Binder | Kd [nM]
1 | UCUCUUAUUGUAUUAUUAACUCUCUU (ssRNA) [Id_ii_S1_P5E.2_K5.1_C5.2_[C-2A]_H5.1_A5.1_F5.1_T5.2_[T11A]_[A12C]] | 11.1
2 | UCUCUUCUUGUAUUAUUAAUUCUCUU (ssRNA) [Id_ii_S1_P5E.2_K5.1_C5.2_H5.1_A5.1_F5.1_T5.2_[T11A]_[A12T]] | 8.8
3 | UCUCUUUAUGUAUUAUUAAAUCUCUU (ssRNA) [Id_ii_S1_P5E.2_K5.1_C5.2_[C-2T]_[T-1A]_H5.1_A5.1_F5.1_T5.2_[T11A]] | 16.8
4 | UCUCUUCCUGUAUUAUUAAAUCUCUU (ssRNA) [Id_ii_S1_P5E.2_K5.1_C5.2_[T-1C]_H5.1_A5.1_F5.1_T5.2_[T11A]] | 18.8
5 | UCUCUUUAUGUAUUAUUAGUUCUCUU (ssRNA) [Id_ii_S1_P5E.2_K5.1_C5.2_[C-2T]_[T-1A]_H5.1_A5.1_F5.1_T5.2_[T11G]_[A12T]] | 4.38
6 | UCUCUUUGUAAAAUAUCUCUU (ssRNA) [Ic_S1_P4E.1_K4.1_C4.1_H4.1_A4.1_[T5A]_[T7A]_F4.1_T4.1] | 3.38
7 | UCUCUUCUUGUAUUAUUAAAUCUCUU (ssRNA) [Id_ii_S1_P5E.2_K5.1_C5.2_H5.1_A5.1_F5.1_T5.2_[T11A]] | 9.5
8 | UCUCUUUGUAAACUAUCUCUU (ssRNA) [Ic_S1_P4E.1_K4.1_C4.1_H4.1_A4.1_[T5A]_[T7C]_F4.1_T4.1] | 2.01
9 | UCUCUUCCUGUAUUAUUAAGUCUCUU (ssRNA) [Id_ii_S1_P5E.2_K5.1_C5.2_[T-1C]_H5.1_A5.1_F5.1_T5.2_[T11A]_[A12G]] | 14.6
10 | UCUCUUAUUGUAUUAUUAUGUCUCUU (ssRNA) [Id_ii_S1_P5E.2_K5.1_C5.2_[C-2A]_H5.1_A5.1_F5.1_T5.2_[A12G]] | 10.1
11 | UCUCUUUGUAUGGUAUCUCUU (ssRNA) [Ib_S1_P4E.1_K4.1_C4.1_H4.1_A4.1_[A6G]_[T7G]_F4.1_T4.1] | 14.6
12 | UCUCUUUCUGUAUUAUUAAAUCUCUU (ssRNA) [Id_ii_S1_P5E.2_K5.1_C5.2_[C-2T]_[T-1C]_H5.1_A5.1_F5.1_T5.2_[T11A]] | 8.35
13 | UCUCUUCUUGUAUUAUUAGCUCUCUU (ssRNA) [Id_ii_S1_P5E.2_K5.1_C5.2_H5.1_A5.1_F5.1_T5.2_[T11G]_[A12C]] | 2.47
14 | UCUCUUUUUGUAUUAUUAACUCUCUU (ssRNA) [Id_ii_S1_P5E.2_K5.1_C5.2_[C-2T]_H5.1_A5.1_F5.1_T5.2_[T11A]_[A12C]] | 8.08
15 | UCUCUUACUGUAUUAUUAUCUCUCUU (ssRNA) [Id_ii_S1_P5E.2_K5.1_C5.2_[C-2A]_[T-1C]_H5.1_A5.1_F5.1_T5.2_[A12C]] | 9.38
16 | UCUCUUCGUGUAUUAUUAAAUCUCUU (ssRNA) [Id_ii_S1_P5E.2_K5.1_C5.2_[T-1G]_H5.1_A5.1_F5.1_T5.2_[T11A]] | 15

Row | Binder | Kd [nM]
17 | UCUCUUCGUGUAUUAUUAGUUCUCUU (ssRNA) [Id_ii_S1_P5E.2_K5.1_C5.2_[T-1G]_H5.1_A5.1_F5.1_T5.2_[T11G]_[A12T]] | 3.02
18 | UCUCUUUAUGUAUUAUUAUUUCUCUU (ssRNA) [Id_ii_S1_P5E.2_K5.1_C5.2_[C-2T]_[T-1A]_H5.1_A5.1_F5.1_T5.2_[A12T]] | 7.85
19 | UCUCUUCAUGUAUUAUUAGCUCUCUU (ssRNA) [Id_ii_S1_P5E.2_K5.1_C5.2_[T-1A]_H5.1_A5.1_F5.1_T5.2_[T11G]_[A12C]] | 3.39
20 | UCUCUUAUUGUAUUAUUAGCUCUCUU (ssRNA) [Id_ii_S1_P5E.2_K5.1_C5.2_[C-2A]_H5.1_A5.1_F5.1_T5.2_[T11G]_[A12C]] | 4.53
21 | UCUCUUCUUGUAUUAUUAUGUCUCUU (ssRNA) [Id_ii_S1_P5E.2_K5.1_C5.2_H5.1_A5.1_F5.1_T5.2_[A12G]] | 5.83
22 | UCUCUUUUUGUAUUAUUAAUUCUCUU (ssRNA) [Id_ii_S1_P5E.2_K5.1_C5.2_[C-2T]_H5.1_A5.1_F5.1_T5.2_[T11A]_[A12T]] | 8.7
23 | UCUCUUACUGUAUUAUUAUGUCUCUU (ssRNA) [Id_ii_S1_P5E.2_K5.1_C5.2_[C-2A]_[T-1C]_H5.1_A5.1_F5.1_T5.2_[A12G]] | 8.64
24 | UCUCUUCCUGUAUUAUUAUUUCUCUU (ssRNA) [Id_ii_S1_P5E.2_K5.1_C5.2_[T-1C]_H5.1_A5.1_F5.1_T5.2_[A12T]] | 7.47
25 | UCUCUUACUGUAUUAUUAAUUCUCUU (ssRNA) [Id_ii_S1_P5E.2_K5.1_C5.2_[C-2A]_[T-1C]_H5.1_A5.1_F5.1_T5.2_[T11A]_[A12T]] | 12.5
26 | UCUCUUAUUGUAUUAUUAAAUCUCUU (ssRNA) [Id_ii_S1_P5E.2_K5.1_C5.2_[C-2A]_H5.1_A5.1_F5.1_T5.2_[T11A]] | 13.4
27 | UCUCUUAUUGUAUUAUUAUCUCUCUU (ssRNA) [Id_ii_S1_P5E.2_K5.1_C5.2_[C-2A]_H5.1_A5.1_F5.1_T5.2_[A12C]] | 6.61
28 | UCUCUUUUUGUAUUAUUAUCUCUCUU (ssRNA) [Id_ii_S1_P5E.2_K5.1_C5.2_[C-2T]_H5.1_A5.1_F5.1_T5.2_[A12C]] | 5.34
29 | UCUCUUUUUGUAUUAUUAGCUCUCUU (ssRNA) [Id_ii_S1_P5E.2_K5.1_C5.2_[C-2T]_H5.1_A5.1_F5.1_T5.2_[T11G]_[A12C]] | 4.26
30 | UCUCUUCAUGUAUUAUUAGUUCUCUU (ssRNA) [Id_ii_S1_P5E.2_K5.1_C5.2_[T-1A]_H5.1_A5.1_F5.1_T5.2_[T11G]_[A12T]] | 3.5
31 | UCUCUUCCUGUAUUAUUAAUUCUCUU (ssRNA) [Id_ii_S1_P5E.2_K5.1_C5.2_[T-1C]_H5.1_A5.1_F5.1_T5.2_[T11A]_[A12T]] | 6.56
